Source: patent publication US20070224615A1

Assays:
[1] = biological target: CCR5-tTA fusion construct containing the low efficiency cleavage site (UniProt P51681); assay: cell-based or functional assay
[2] = biological target: EGFR-TEV-NIa-Pro cleavage (Leu)-tTA (human) (UniProt P00533); assay: cell-based or functional assay

Chain of UniProt P51681 (P51681 whole entry, the tested form may be a part): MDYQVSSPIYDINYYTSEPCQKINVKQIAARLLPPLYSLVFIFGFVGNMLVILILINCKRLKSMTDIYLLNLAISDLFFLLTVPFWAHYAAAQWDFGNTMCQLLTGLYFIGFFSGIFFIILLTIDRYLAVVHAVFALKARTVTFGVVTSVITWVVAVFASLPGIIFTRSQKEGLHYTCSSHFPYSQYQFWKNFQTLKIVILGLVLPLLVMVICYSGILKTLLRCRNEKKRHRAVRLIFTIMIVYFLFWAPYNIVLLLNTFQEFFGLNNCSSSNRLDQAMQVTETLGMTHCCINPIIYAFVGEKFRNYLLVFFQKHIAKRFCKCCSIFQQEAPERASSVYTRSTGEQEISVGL

induction of β-galactosidase reporter gene expression over background at 1 µg/ml RANTES, clone 34 cells with stable ARRB2-TEV-NIa protease [1] [fold]	increase of luciferase reporter gene activity at 100 ng/ml ligand, cells co-expressing PLC Gamma1-TEV [2] [fold]	Substance
40		Regulated on Activation, Normal T-Cell Expressed and Secreted (RANTES) (from UniProt P13501 24-91) (ligand)
	18.3	human Transforming Growth Factor-Alpha (from UniProt P01135 40-89) (ligand)
